This note sets out measurements from US20190284262A1 (Memorial Sloan Kettering, published 2019).

Sequences and labels used below:
B1: EXT017-28 scFv phage clone (scFv)
scFv: QSVLTQPPSVSGAPGQRVTISCTGSSSNIGAGYDVHWYQQLPGTAPKLLIYGNSDRPSGVPDRFSGSKSGTSASLAITGLQAEDEADYYCQSYDSSLSGYVFGTGTKVTVLGSRGGGGSGGGGSGGGGSLEMAQMQLVQSGAEVKKPGSSVKVSCKASGGTFSTYAISWVRQAPGQGLEWMGGIIPIFGTANYAQKFQGRVTITADKSTSTAYMEVRNLRSEDTAVYYCARAEYVYGEYDQWGQGTLVTVSSTSGQAGQHHHHHHGAYPYDVPDYAS
notes: full-length scFv with His+HA tags; also called EXT017-28 phage; phage clone #28
B2: EXT017-17 scFv phage clone (scFv)
scFv: QSVLTQPPSVSGAPGQRVTISCTGSSSNIGAGYDVHWYQQLPGTAPKLLIYGNSNRPSGVPDRFSGSKSGTSASLAITGLQAEDEADYYCQSYDSSLSGYVFGTGTKVTVLGSRGGGGSGGGGSGGGGSLEMAEVQLVQSGAEVKKPGSSVKVSCKASGDTFSRYAISWVRQAPGQGLEWMGRIIPIFGTPNYAQKFQGRVTITADEFTSTAYMELSSLRSEDTAMYYCARSIYRYSEYDHWGQGTLVTVSSTSGQAGQHHHHHHGAYPYDVPDYAS
notes: fusion to the phage coat protein not described; also called EXT017-17 phage; phage clone #17
B3: EXT017-32 scFv phage clone (scFv)
scFv: QSVLTQPPSVSVAPGKTARITCGGNNIGSKSVHWYQQKPGQAPVLVIYYDSDRPSGIPERFSGSNSGNTATLTISRVEAGDEADYYCQVWDSSSDHYVFGTGTKVTVLGSRGGGGSGGGGSGGGGSLEMAEVQLVESGGGVVQPGRSLRLSCAASGFTFNNHAMHWVRQAPGKGLEWVAVISFDGDDKFYADSVKGRFTISRDNSRNTLFLQMNNLRPEDTAVYYCSRDPYHFASGSYSYFDYWGQGTLVTVSSTSGQAGQHHHHHHGAYPYDVPDYAS
notes: also called EXT017-32 phage; phage clone #32
B4: EXT017-27 scFv phage clone (scFv)
scFv: QAVLTQPPSVSVAPGKTARLTCGGNNIGSESVHWYQQKPGQAPLLVVYDDDDRPSGIPERFSGSNSGNTATLTISRVEAGDEADYYCQVWDRSSDHWFFGGGTKLTVLGSRGGGGSGGGGSGGGGSLEMAQVQLVQSGAEVKKPGASVKVSCKASGYTFTNYYIHWVRQAPGQGLEWMGIIRPSGGITNYAQKFQGRVSMTRDTSTSTVYMELSSLRSEDTAVYYCARSWDYFASNDFWGQGTLVTVSSTSGQAGQHHHHHHGAYPYDVPDYAS
notes: full-length scFv with His+HA tags; also called EXT017-27 phage; phage clone #27
B5: EXT017-53 scFv phage clone (scFv)
scFv: NFMLTQPHSVSESPGKTVTISCTRSSGSIASHYVQWYQQRPGSSPTTVIYENNQRPSGVPDRFSGSIDSSSNSASLTISGLKTEDEADYYCQSYDRSNHVVFGGGTKLTVLGSRGGGGSGGGGSGGGGSLEMAQVQLVQSGAEVKKPGASVKVSCKASGYTFTNYYIHWVRQAPGEGLEWMGIIRPSGGNTNYAQKFQGRVTMTRDTSTRTVYMELSSLRSEDTAVYYCARSWNSRDVDSWGQGTLVTVSSTSGQAGQHHHHHHGAYPYDVPDYAS
notes: full-length scFv with His+HA tags; also called EXT017-53 phage

One test deals with T1, HLA-A*02:01 on T2 cells alone (no peptide added) (human).
T1 construct: TAP-deficient T2 cells without pulsed peptide; negative control target, and the HLA molecule whose stabilisation by peptides is read in the T2 stabilization assay; also called HLA-A*02 molecule; HLA-A2 molecule
The test is described as follows: flow cytometry, phage on T2 cells. (In general: In flow cytometry, cells or beads pass a laser one at a time.)
B1: the binding result is on record as “no binding”.

As for B2, the binding result is on record as “no binding”.

On to B3, for which the binding result is on record as “no binding”.

On to B4, for which the binding result is listed as “no binding”.

For the next test, the target named is T1, HLA-A*02:01 on T2 cells alone (no …). The test is described as follows: flow cytometry, phage on T2 cells, no peptide.
For B1, the MFI amounted to 93.9.

B2 returned an MFI of 92.9.

In the case of B3, the MFI came to 91.8.

For B4, the MFI was 90.4.

With B5, the MFI is 89.5.

Another test deals with T2, Foxp3-7 peptide/HLA-A*02:01 complex on the cell surface (human).
T2 construct: also called Foxp3-7/HLA-A2 complex
Description: flow cytometry, phage on peptide-loaded T2 cells.
Regarding B1, the MFI came out at 39500.

As for B2, the MFI came to 23600.

In turn, B3 displayed an MFI of 27500.

B4 yielded an MFI of 21200.

With B5, the MFI turned out to be 25800.

The target in a further test is T3, 017-mut9 peptide (…)/HLA-A*02:01 complex on T2 cells (human).
T3 construct: Alanine mutant at position 9
The test is described as follows: flow cytometry, phage on peptide-loaded T2 cells.
As to B1, the MFI worked out at 5890.

Regarding B2, the MFI is 94.7.

In turn, B3 showed an MFI of 93.6.

With B4, the MFI was 131.

As for B5, the MFI was determined as 149.

A further test addresses T4, 017-mut1 peptide (…)/HLA-A*02:01 complex on T2 cells (human).
T4 construct: Alanine mutant of Foxp3-7 at position 1, pulsed onto T2 cells; also called EXT017-mut1
The test is described as follows: flow cytometry, phage on peptide-loaded T2 cells.
Turning to B1, the MFI stood at 20100.

In the case of B2, the MFI turned out to be 7880.

B3: the MFI turned out to be 15100.

B4 had an MFI of 222.

As for B5, the MFI came to 1100.

Another test has as its target T5, 017-mut2 peptide (…)/HLA-A*02:01 complex on T2 cells (human).
T5 construct: Alanine mutant at position 2, the anchor position; the peptide may load poorly onto HLA-A2; also called EXT017-mut2
The test is described as follows: flow cytometry, phage on peptide-loaded T2 cells.
Consider B1, for which the MFI is 102.

In the case of B2, the MFI is 99.8.

B3 registered an MFI of 103.

In the case of B4, the MFI was found to be 98.2.

B5 yielded an MFI of 95.3.

A further test addresses T6, 017-mut3 peptide (…)/HLA-A*02:01 complex on T2 cells (human).
T6 construct: Alanine mutant at position 3
Description: flow cytometry, phage on peptide-loaded T2 cells.
B1 returned an MFI of 13400.

For the molecule B2, the MFI was 741.

On to B3, for which the MFI was 21000.

Consider B4, for which the MFI was 2260.

In the case of B5, the MFI was 5780.

The target of the next test is T7, 017-mut4 peptide (…)/HLA-A*02:01 complex on T2 cells (human).
T7 construct: Alanine mutant at position 4
The test is described as follows: flow cytometry, phage on peptide-loaded T2 cells.
Turning to B1, the MFI came out at 108.

In turn, B2 registered an MFI of 103.

B3 gave an MFI of 20800.

B4 yielded an MFI of 99.

B5 had an MFI of 95.8.

The next test deals with T8, 017-mut5 peptide (…)/HLA-A*02:01 complex on T2 cells (human).
T8 construct: Alanine mutant at position 5
The test is described as follows: flow cytometry, phage on peptide-loaded T2 cells.
B1: the MFI amounted to 107.

Molecule B2 gave an MFI of 98.1.

B3 gave an MFI of 2710.

Regarding B4, the MFI turned out to be 95.4.

Consider B5, for which the MFI was determined as 98.5.

A further test has as its target T9, 017-mut7 peptide (…)/HLA-A*02:01 complex on T2 cells (human).
T9 construct: Alanine mutant at position 7
Description: flow cytometry, phage on peptide-loaded T2 cells.
In the case of B1, the MFI was determined as 96.4.

Consider B2, for which the MFI was determined as 97.8.

On to B3, for which the MFI worked out at 99.6.

B4 displayed an MFI of 96.3.

B5: the MFI came to 98.9.

The target in the next test is T10, 017-mut8 peptide (…)/HLA-A*02:01 complex on T2 cells (human).
T10 construct: Alanine mutant at position 8; also called TLI-A8
The test is described as follows: flow cytometry, phage on peptide-loaded T2 cells.
In turn, B1 returned an MFI of 27500.

B2 displayed an MFI of 3590.

Consider B3, for which the MFI is 96.7.

In turn, B4 displayed an MFI of 6400.

Take B5: the MFI is 12100.

Another test concerns the target T1, HLA-A*02:01 on T2 cells alone (no …). The test is described as follows: flow cytometry, phage on T2 without peptide.
In the case of B5, the binding result is “no binding”.

The target of a further test is T11, R3 (RHAMM-R3) peptide/HLA-A*02:01 complex on T2 cells (human).
T11 construct: Control target of the phage staining of T2 cells; also called T2 cells pulsed with R3 peptide; RHAMM 3 (R3)
Description: flow cytometry, phage on T2 + R3 peptide; secondary only 123, unstained 99.8.
With B1, the “Median:FITC-A” value is 140.

In the case of B2, the “Median:FITC-A” value is 146.

Consider B3, for which the “Median:FITC-A” value is 136.

Turning to B4, the “Median:FITC-A” value came to 145.

A further test has as its target T1, HLA-A*02:01 on T2 cells alone (no …). Description: flow cytometry, phage on T2 without peptide; secondary only 121, unstained 106.
Regarding B1, the “Median:FITC-A” value worked out at 144.

On to B2, for which the “Median:FITC-A” value was 143.

In the case of B3, the “Median:FITC-A” value came out at 138.

Turning to B4, the “Median:FITC-A” value worked out at 150.

For another test the target is unchanged. Description: flow cytometry, phage on T2 without peptide; secondary only 100, unstained 99.5.
For B2, the “Median:FITC-A” value came to 151.

The next test shares this target. The test is described as follows: flow cytometry, phage on T2 without peptide; secondary only 320, unstained 91.4.
Regarding B1, the “Median:FITC-A” value came out at 353.

B3: the “Median:FITC-A” value was determined as 356.

As for B4, the “Median:FITC-A” value amounted to 355.

Regarding B5, the “Median:FITC-A” value amounted to 355.

Another test concerns the target T2, Foxp3-7 peptide/HLA-A*02:01 complex on …. The test is described as follows: flow cytometry, phage on T2 + Foxp3-7 peptide; secondary only 133, unstained 103.
Turning to B2, the “Median:FITC-A” value turned out to be 1760.

Another test has the same target. Description: flow cytometry, phage on T2 + Foxp3-7 peptide; secondary only 116, unstained 93.8.
B1: the “Median:FITC-A” value turned out to be 873.

As to B2, the “Median:FITC-A” value is 745.

On to B3, for which the “Median:FITC-A” value stood at 4070.

For B4, the “Median:FITC-A” value came to 658.

The next test has the same target. The test is described as follows: flow cytometry, phage on T2 + Foxp3-7 peptide; secondary only 318, unstained 95.8.
On to B1, for which the “Median:FITC-A” value is 1740.

B3: the “Median:FITC-A” value turned out to be 1640.

In the case of B4, the “Median:FITC-A” value turned out to be 1940.

Take B5: the “Median:FITC-A” value was 1050.

For another test, the target named is T12, T2+EW (Homo sapiens, UniProt A*02:01).
T12 construct: on the surface of T2 cells; irrelevant control peptide; also called EW peptide/HLA-A*02:01 complex on T2 cells; T2 pulsed with EW peptide
The test is described as follows: flow cytometry, phage on T2 + EW peptide; secondary only 310, unstained 93.
Consider B1, for which the “Median:FITC-A” value was determined as 338.

For B3, the “Median:FITC-A” value is 357.

Take B4: the “Median:FITC-A” value was determined as 371.

Take B5: the “Median:FITC-A” value turned out to be 346.

Another test has as its target T12, T2+EW. The test is described as follows: flow cytometry, phage on T2 + EW peptide; secondary only 113, unstained 94.7.
On to B2, for which the “Median:FITC-A” value came out at 144.

In a further test the target is T2, Foxp3-7 peptide/HLA-A*02:01 complex on …. Description: flow cytometry, phage on T2 + Foxp3-7 peptide; secondary only 104, unstained 81.7.
Turning to B1, the “Median:FITC-A” value turned out to be 2790.

On to B2, for which the “Median:FITC-A” value is 2590.

As to B3, the “Median:FITC-A” value came out at 3840.

For the molecule B4, the “Median:FITC-A” value is 2820.

Consider B5, for which the “Median:FITC-A” value was found to be 2700.

Another test has as its target T11, R3 (RHAMM-R3) peptide/HLA-A*02:01 …. The test is described as follows: flow cytometry, phage on T2 + R3 peptide (as the table names the samples); secondary only 109, unstained 80.9.
Take B1: the “Median:FITC-A” value is 118.

Turning to B2, the “Median:FITC-A” value is 124.

As for B3, the “Median:FITC-A” value came out at 123.

For B4, the “Median:FITC-A” value worked out at 123.

Take B5: the “Median:FITC-A” value was determined as 121.
